The results in this text go back to US12269859B2, “Synthetic immune receptors and methods of use thereof” (Angeles Therapeutics, Inc., priority 2016, dated 2025).

The experiment deals with target antigen-expressing cell line. Kind of experiment: Jurkat NFAT-GFP assay, coculture with target cell lines expressing the respective target antigen (summary Table 10A). The experiment is classed as cell-based, human. More on the design: key: The signs +/−, +, 2+ etc. after the name of the cell lines indicate the relative degree of positivity on the Jurkat-NFAT-GFP assay as measured by the % GFP positive cells; +: relative degree of positivity on the Jurkat-NFAT-GFP assay as measured by the % GFP positive cells; 2+: relative degree of positivity on the Jurkat-NFAT-GFP assay as measured by the % GFP positive cells. Summed up: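 Stable SIR expression in Jurkat-NFAT-GFP cells by lentiviral transfer and puromycin selection; coculture with target cells (E:T approximately 1:2) for 4 to 18 hours; flow cytometric measurement of NFAT-driven GFP; scoring as positive when % GFP-positive cells exceeds that of parental reporter cells.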

B1: 090116-L01 (protein)
chain: MALPVTALLLPLALLLHAARPLEGKPIPNPLLGLDSTGSGEDLKNVFPPEVAVFEPSKAEIAHTQKATLVCLATGFYPDHVELSWWVNGKEVHSGVCTDPQPLKEQPALNDSRYCLSSRLRVSATFWQNPRNHFRCQVQFYGLSENDEWTQDRAKPVTQIVSAEAWGRADCGITSASYHQGVLSATILYEILLGKATLYAVLVSALVLMAMVKRKDSRGRAKRSGSGATNFSLLKQAGDVEENPGPTSMALPVTALLLPLALLLHAARPDIVMTQSQKSMSTSVGDRVSITCKASQDVITGVAWYQQKPGQSPKLLIYSASYRYTGVPDRFTGSGSGTDFTFTISNVQAEDLAVYYCQQHYSTPLTFGAGTKLELKGGGGSGGGGSGGGGSQVQLQQPGAELVRPGASVKLSCKASGYSFTTYWMNWVKQRPGQGLEWIGMIHPSDSETRLNQKFKDKATLTVDKSSSTAYMQLSSPTSEDSAVYYCARSTMIATRAMDYWGQGTSVTVSSTREQKLISEEDGSGIQNPDPAVYQLRDSKSSDKSVCLFTDFDSQTNVSQSKDSDVYITDKCVLDMRSMDFKSNSAVAWSNKSDFACANAFNNSIIPEDTFFPSSDVPCDVKLVEKSFETDTNLNFQNLSVIGFRILLLKVAGFNLLMTLRLWSSRAKRSGSGVKQTLNFDLLKLAGDVESNPGPSRGHMTEYKPTVRLATRDDVPRAVRTLAAAFADYPATRHTVDPDRHIERVTELQELFLTRVGLDIGKVWVADDGAAVAVWTTPESVEAGAVFAEIGPRMAELSGSRLAAQQQMEGLLAPHRPKEPAWFLATVGVSPDHQGKGLGSAVVLPGVEAAERAGVPAFLETSAPRNLPFYERLGFTVTADVEVPEGPRTWCMTRKPGA
modifications: Synthetic Immune Receptor (SIR)
On to B1, for which the “NFAT-GFP ASSAY Positive Cell lines” value is “(+)” (coculture with L363 cells) and “U266 (+/−), L363” (coculture with U266 cells).

B2: 012517-A12 (protein)
chain: MALPVTALLLPLALLLHAARPLEGKPIPNPLLGLDSTGSGEDLKNVFPPEVAVFEPSKAEIAHTQKATLVCLATGFYPDHVELSWWVNGKEVHSGVCTDPQPLKEQPALNDSRYCLSSRLRVSATFWQNPRNHFRCQVQFYGLSENDEWTQDRAKPVTQIVSAEAWGRADCGITSASYHQGVLSATILYEILLGKATLYAVLVSALVLMAMVKRKDSRGRAKRSGSGATNFSLLKQAGDVEENPGPTSMALPVTALLLPLALLLHAARPDIQMTQSPSSLSASVGDRVTITCKASQDVSTAVAWYQQKPGKAPKLLIYSASYRYTGVPDRFTGSGSGTDFTLTISSLQPEDFATYYCQQHYSTPPYTFGGGTKVEIKRGGGGSGGGGSGGGGSQVQLVQSGAEVKKPGASVKVSCKASGYAFSSSWMNWVRQAPGQGLEWIGRIYPGDGDTKYNGKFKGKATLTADKSTSTAYMELSSLRSEDTAVYYCARSTMIATGAMDYWGQGTLVTVSSTREQKLISEEDGSGIQNPDPAVYQLRDSKSSDKSVCLFTDFDSQTNVSQSKDSDVYITDKCVLDMRSMDFKSNSAVAWSNKSDFACANAFNNSIIPEDTFFPSSDVPCDVKLVEKSFETDTNLNFQNLSVIGFRILLLKVAGFNLLMTLRLWSSRAKRSGSGVKQTLNFDLLKLAGDVESNPGPSRGHMTEYKPTVRLATRDDVPRAVRTLAAAFADYPATRHTVDPDRHIERVTELQELFLTRVGLDIGKVWVADDGAAVAVWTTPESVEAGAVFAEIGPRMAELSGSRLAAQQQMEGLLAPHRPKEPAWFLATVGVSPDHQGKGLGSAVVLPGVEAAERAGVPAFLETSAPRNLPFYERLGFTVTADVEVPEGPRTWCMTRKPGA
Take B2: the “NFAT-GFP ASSAY Positive Cell lines” value (coculture with L363 cells) is listed as “(+)” and the “NFAT-GFP ASSAY Positive Cell lines” value (coculture with U266 cells) is recorded as “U266 (+/−), L363”.

B3: 041416-P02 (protein)
chain: MALPVTALLLPLALLLHAARPDIVMTQSQKSMSTSVGDRVSITCKASQDVITGVAWYQQKPGQSPKLLIYSASYRYTGVPDRFTGSGSGTDFTFTISNVQAEDLAVYYCQQHYSTPLTFGAGTKLELKLEGKPIPNPLLGLDSTGSGEDLKNVFPPEVAVFEPSKAEIAHTQKATLVCLATGFYPDHVELSWWVNGKEVHSGVCTDPQPLKEQPALNDSRYCLSSRLRVSATFWQNPRNHFRCQVQFYGLSENDEWTQDRAKPVTQIVSAEAWGRADCGITSASYHQGVLSATILYEILLGKATLYAVLVSALVLMAMVKRKDSRGRAKRSGSGATNFSLLKQAGDVEENPGPTSMDWIWRILFLVGAATGAHSFEQVQLQQPGAELVRPGASVKLSCKASGYSFTTYWMNWVKQRPGQGLEWIGMIHPSDSETRLNQKFKDKATLTVDKSSSTAYMQLSSPTSEDSAVYYCARSTMIATRAMDYWGQGTSVTVSSTREQKLISEEDGSGTPFPSLAPPIMLLVDGKQQMVVVCLVLDVAPPGLDSPIWFSAGNGSALDAFTYGPSPATDGTWTNLAHLSLPSEELASWEPLVCHTGPGAEGHSRSTQPMHLSGEASTARTCPQEPLRGTPGGALWLGVLRLLLFKLLLFDLLLTCSCLCDPAGPLPSPATTTRLRALGSHRLHPATETGGREATSSPRPQPRDRRWGDTPPGRKPGSPVRAKRSGSGVKQTLNFDLLKLAGDVESNPGPSRGHMTEYKPTVRLATRDDVPRAVRTLAAAFADYPATRHTVDPDRHIERVTELQELFLTRVGLDIGKVWVADDGAAVAVWTTPESVEAGAVFAEIGPRMAELSGSRLAAQQQMEGLLAPHRPKEPAWFLATVGVSPDHQGKGLGSAVVLPGVEAAERAGVPAFLETSAPRNLPFYERLGFTVTADVEVPEGPRTWCMTRKPGA
modifications: Polynucleotide encoding a Synthetic Immune Receptor (SIR)
B3: the “NFAT-GFP ASSAY Positive Cell lines” value (coculture with L363 cells) was “(+/−)” and the “NFAT-GFP ASSAY Positive Cell lines” value (coculture with U266 cells) is given as “U266 (+/−), L363”.

B4: 110116-L01 (protein)
chain: MALPVTALLLPLALLLHAARPLEQKLISEEDLGSGDRPDPAVYQLRDSKSSDKSVCLFTDFDSQTNVSQSKDSDVYITDKCVLDMRSMDFKSNSAVAWSNKSDFACANAFNNSIIPEDTFFPSPESSCDVKLVEKSFETDTNLNFQNLSVIGFRILLLKVAGFNLLMTLRLWSSSSRAKRSGSGVKQTLNFDLLKLAGDVESNPGPTSMALPVTALLLPLALLLHAARPDIVMTQSQKSMSTSVGDRVSITCKASQDVITGVAWYQQKPGQSPKLLIYSASYRYTGVPDRFTGSGSGTDFTFTISNVQAEDLAVYYCQQHYSTPLTFGAGTKLELKGGGGSGGGGSGGGGSQVQLQQPGAELVRPGASVKLSCKASGYSFTTYWMNWVKQRPGQGLEWIGMIHPSDSETRLNQKFKDKATLTVDKSSSTAYMQLSSPTSEDSAVYYCARSTMIATRAMDYWGQGTSVTVSSTRGKPIPNPLLGLDSTGSGEDLKNVFPPEVAVFEPSEAEISHTQKATLVCLATGFYPDHVELSWWVNGKEVHSGVCTDPQPLKEQPALNDSRYCLSSRLRVSATFWQNPRNHFRCQVQFYGLSENDEWTQDRAKPVTQIVSAEAWGRADCGFTSESYQQGVLSATILYEILLGKATLYAVLVSALVLMAMVKRKDSRGRAKRSGSGATNFSLLKQAGDVEENPGPSRGHMTEYKPTVRLATRDDVPRAVRTLAAAFADYPATRHTVDPDRHIERVTELQELFLTRVGLDIGKVWVADDGAAVAVWTTPESVEAGAVFAEIGPRMAELSGSRLAAQQQMEGLLAPHRPKEPAWFLATVGVSPDHQGKGLGSAVVLPGVEAAERAGVPAFLETSAPRNLPFYERLGFTVTADVEVPEGPRTWCMTRKPGA
modifications: Synthetic Immune Receptor (SIR)
For the molecule B4, the “NFAT-GFP ASSAY Positive Cell lines” value (coculture with L363 cells) was “U266 (+), L363 (+)” and the “NFAT-GFP ASSAY Positive Cell lines” value (coculture with U266 cells) is “U266 (+), L363 (+)”.

B5: 060616-K04 (protein)
chain: MALPVTALLLPLALLLHAARPDIQMTQSPSSLSASVGDRVTITCKASQDVGIAVAWYQQKPGKVPKLLIYWASTRHTGVPDRFSGSGSGTDFTLTISSLQPEDVATYYCQQYSSYPYTFGQGTKVEIKLEGKPIPNPLLGLDSTGSGEDLKNVFPPEVAVFEPSKAEIAHTQKATLVCLATGFYPDHVELSWWVNGKEVHSGVCTDPQPLKEQPALNDSRYCLSSRLRVSATFWQNPRNHFRCQVQFYGLSENDEWTQDRAKPVTQIVSAEAWGRADCGITSASYHQGVLSATILYEILLGKATLYAVLVSALVLMAMVKRKDSRGRAKRSGSGATNFSLLKQAGDVEENPGPTSMDWIWRILFLVGAATGAHSFEEVQLVESGGGLVQPGGSLRLSCAASGFDFSRYWMSWVRQAPGKGLEWIGEINPDSSTINYAPSLKDKFIISRDNAKNSLYLQMNSLRAEDTAVYYCARPDGNYWYFDVWGQGTLVTVSSTREQKLISEEDGSGIQNPDPAVYQLRDSKSSDKSVCLFTDFDSQTNVSQSKDSDVYITDKCVLDMRSMDFKSNSAVAWSNKSDFACANAFNNSIIPEDTFFPSSDVPCDVKLVEKSFETDTNLNFQNLSVIGFRILLLKVAGFNLLMTLRLWSSRAKRSGSGVKQTLNFDLLKLAGDVESNPGPSRGHMTEYKPTVRLATRDDVPRAVRTLAAAFADYPATRHTVDPDRHIERVTELQELFLTRVGLDIGKVWVADDGAAVAVWTTPESVEAGAVFAEIGPRMAELSGSRLAAQQQMEGLLAPHRPKEPAWFLATVGVSPDHQGKGLGSAVVLPGVEAAERAGVPAFLETSAPRNLPFYERLGFTVTADVEVPEGPRTWCMTRKPGA
modifications: Synthetic Immune Receptor (SIR)
B5: the “NFAT-GFP ASSAY Positive Cell lines” value (coculture with L363 cells) is given as “L363 (2+)”.

B6: 091216-L03 (protein)
chain: MALPVTALLLPLALLLHAARPLEGKPIPNPLLGLDSTGSGEDLKNVFPPEVAVFEPSKAEIAHTQKATLVCLATGFYPDHVELSWWVNGKEVHSGVCTDPQPLKEQPALNDSRYCLSSRLRVSATFWQNPRNHFRCQVQFYGLSENDEWTQDRAKPVTQIVSAEAWGRADCGITSASYHQGVLSATILYEILLGKATLYAVLVSALVLMAMVKRKDSRGRAKRSGSGATNFSLLKQAGDVEENPGPTSTMALPVTALLLPLALLLHAARPDIQMTQSPSSLSASVGDRVTITCKASQDVGIAVAWYQQKPGKVPKLLIYWASTRHTGVPDRFSGSGSGTDFTLTISSLQPEDVATYYCQQYSSYPYTFGQGTKVEIKGGGGSGGGGSGGGGSEVQLVESGGGLVQPGGSLRLSCAASGFDFSRYWMSWVRQAPGKGLEWIGEINPDSSTINYAPSLKDKFIISRDNAKNSLYLQMNSLRAEDTAVYYCARPDGNYWYFDVWGQGTLVTVSSTREQKLISEEDGSGIQNPDPAVYQLRDSKSSDKSVCLFTDFDSQTNVSQSKDSDVYITDKCVLDMRSMDFKSNSAVAWSNKSDFACANAFNNSIIPEDTFFPSSDVPCDVKLVEKSFETDTNLNFQNLSVIGFRILLLKVAGFNLLMTLRLWSSRAKRSGSGVKQTLNFDLLKLAGDVESNPGPSRGHMTEYKPTVRLATRDDVPRAVRTLAAAFADYPATRHTVDPDRHIERVTELQELFLTRVGLDIGKVWVADDGAAVAVWTTPESVEAGAVFAEIGPRMAELSGSRLAAQQQMEGLLAPHRPKEPAWFLATVGVSPDHQGKGLGSAVVLPGVEAAERAGVPAFLETSAPRNLPFYERLGFTVTADVEVPEGPRTWCMTRKPGA
modifications: Synthetic Immune Receptor (SIR)
In the case of B6, the “NFAT-GFP ASSAY Positive Cell lines” value (coculture with L363 cells) is “U266 (+), L363 (+)” and the “NFAT-GFP ASSAY Positive Cell lines” value (coculture with U266 cells) was “U266 (+), L363 (+)”.
